Results taken from patent US20140271699A1 (US Dept. of Health and Human Services, published 2014).

Target: RSV F glycoprotein as expressed by RSV (on RSV-infected HEp-2 cells / on virus) (RSV (strain  for this assay), UniProt P03420 26-109; P03420 137-574)
Assay: cell-based or functional assay

Sequence of RSV F glycoprotein as expressed by RSV (on RSV-infected HEp-2 cells / on virus) (P03420 26-109, chain 1 of 2): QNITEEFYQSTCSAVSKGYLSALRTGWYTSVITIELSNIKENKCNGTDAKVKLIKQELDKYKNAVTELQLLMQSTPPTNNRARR
Sequence of RSV F glycoprotein as expressed by RSV (on RSV-infected HEp-2 cells / on virus) (P03420 137-574, chain 2 of 2): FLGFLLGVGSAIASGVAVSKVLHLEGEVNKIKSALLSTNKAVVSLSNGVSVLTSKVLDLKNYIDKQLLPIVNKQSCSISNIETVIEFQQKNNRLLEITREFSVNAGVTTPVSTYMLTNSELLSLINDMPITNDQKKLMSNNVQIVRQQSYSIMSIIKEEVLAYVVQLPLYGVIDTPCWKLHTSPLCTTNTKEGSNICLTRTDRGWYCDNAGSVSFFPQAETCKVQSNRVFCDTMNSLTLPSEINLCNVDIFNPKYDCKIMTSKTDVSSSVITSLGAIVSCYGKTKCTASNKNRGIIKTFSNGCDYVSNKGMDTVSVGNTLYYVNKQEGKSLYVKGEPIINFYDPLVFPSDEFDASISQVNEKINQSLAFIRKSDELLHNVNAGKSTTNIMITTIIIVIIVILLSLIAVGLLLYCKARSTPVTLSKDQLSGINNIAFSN

B1: AM22 antibody (antibody, V domains shown)
VH: QVQLVQSGAEVKKPGATVKVSCKISGHTLIKLSIHWVRQAPGKGLEWMGGYEGEVDEIFYAQKFQHRLTVIADTATDTVYMELGRLTSDDTAVYFCGTLGVTVTEAGLGIDDYWGQGTLVTVSS
VL: EIVLTQSPGTLSLSPGERATLSCRASQIVSRNHLAWYQQKPGQAPRLLIFGASSRATGIPVRFSGSGSGTDFTLTINGLAPEDFAVYYCLSSDSSIFTFGPGTKVDFKR
With B1 the “RSV neutralization (flow cytometry, RSV-GFP on HEp-2 cells), potency relative to palivizumab” value was ~50 fold.
